Laboratory results taken from the RNAGym collection of RNA variant scans (doi:10.1093/nar/gkz1192).

B1: CPEB3 Ribozyme (parent)
chain: UAACAGGGGGCCACAGCAGAAGCGUUCACGUCGCAGCCCCUGUCAGAUUCUGGUGAAUCUGCGAAUUCUGCUGUAUAUCUC

Variants of: B1
Assay: self-cleavage, relative activity (ratio to wild type); higher = more cleavage; in vitro, sequencing
In short: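 Relative activity compares each variant's cleaved/total read fraction with that of the unmutated ribozyme. To get these fractions, barcoded CPEB3 ribozyme libraries from rounds of error-prone PCR were transcribed with T7 RNA polymerase for 5 hours at 37°C and then given 15 min of DNase I treatment before EDTA was added. The RNAs were reverse transcribed with template switching and sequenced on Illumina, and DNA sequencing linked barcodes to variants. A minimum of 5 reads applied, and three batches were averaged.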

Variant	self-cleavage
G9A G30A	0.18
G9A G30U	0.06
G9A U80A	0.21
G9A U80C	0.23
G9A C79U	0.16
G9A A20C	0.39
G9A A20G	0.37
G9A A20U	0.43
G8U U66G	0.13
G9A U49C	0.23
G9A U49A	0.19
G9A U25A	0.2
G9A U25C	0.21
G8U U67C	0.23
G8U U67A	0.19
G9A C38A	0.25
G9A U78A	0.44
G9A U78C	0.25
G9A U31A	0.16
G9A U31C	0.29
G9A G10A	0.45
G9A G10C	0.2
G9C	0.24
G9A	0.29

Variant	self-cleavage
G8U U80G	0.2
G8U U80A	0.2
G8U U80C	0.16
G9A G22C	0.32
G9A A64G	0.3
G9A A64U	0.39
G9A A64C	0.06
G9A U76C	0.34
G9A U76A	0.45
G9A C68U	0.27
G9C A45U	0.13
G9C A45C	0.25
G9A U58G	0.08
G9A U58C	0.25
G9A U58A	0.07
G9A G61A	0.06
G8U U49A	0.28
G8U U49C	0.22
G9A U43G	0.22
G9A U43A	0.39
G9A U43C	0.29
G9A G46A	0.13
G9A A21C	0.06
G9A A21G	0.19

Variant	self-cleavage
G8U U69C	0.09
G8U U69A	0.12
G9A A28G	0.24
G9A A28C	0.2
G9A A28U	0.22
G8U U74A	0.41
G8U U74G	0.17
G9A U41A	0.19
G9A U41G	0.26
G9A U41C	0.43
G9A A45U	0.21
G9A A45G	0.39
G8U G63A	0.07
G9A U74C	0.6
G9A G52A	0.24
G9A G52C	0.13
G9A A65U	0.17
G9A A65G	0.22
G8U G46U	0.19
G9A A18G	0.21
G9A A18U	0.14
G9C A15G	0.39
G9C A15C	0.34
G9C A15U	0.1

Variant	self-cleavage
G9C A56G	0.24
G9A A35U	0.18
G9A A35G	0.66
G8U G73C	0.5
G8U U48C	0.38
G9A U72A	0.23
G9A U72C	0.39
G8U U78A	0.21
G8U U78C	0.17
G8U U60C	0.17
G8U U60A	0.07
G8U U60G	0.06
G9A G53A	0.35
G9A U66C	0.24
G9A U66A	0.11
G8U U54A	0.07
G8U U54C	0.14
G9A U26G	0.07
G9A U26A	0.29
G9A U26C	0.21
G8U U41A	0.19
G8U U41C	0.12
G8U U41G	0.39
G9A G33A	0.08

Variant	self-cleavage
G9A A13G	0.3
G9A A13U	0.28
G9A G63A	0.12
G9A C17U	0.23
G9A C17G	0.1
G9A G42A	0.3
G9A A77C	0.17
G9A A77G	0.3
G9A A77U	0.23
G8U G52A	0.21
G8U G52U	0.21
G9A A15U	0.15
G9A A15G	0.3
G9A A57G	0.22
G9A A57U	0.15
G9C A28G	0.07
G9A C32U	0.2
G9A U60C	0.14
G9A U60A	0.22
G9A A56C	0.24
G9A A56U	0.23
G9A A56G	0.18
G9A U54C	0.33
G9A U54A	0.13

Variant	self-cleavage
G9A U69G	0.2
G9A U69A	0.21
G9A U69C	0.1
G8U U26C	0.14
G8U U26A	0.07
G9A C34A	0.2
G9A C37U	0.15
G9A A47U	0.06
G9A A47G	0.37
G9A C27A	0.04
G9A U51A	0.27
G9A U51C	0.37
G9A C23U	0.07
G9C A35G	0.27
G8U G53U	0.12
G8U G53A	0.2
G9C A18U	0.08
G9C A18G	0.16
G9C A64G	0.08
G9A G16A	0.17
G9A C40U	0.08
G8U G55U	0.2
G8U U76A	0.28
G8U U76C	0.13

Variant	self-cleavage
G8U U25C	0.12
G9A A75G	0.31
G9C A57U	0.24
G8U G36A	0.1
G9C A21U	0.23
G9A C81U	0.35
G8U U31A	0.18
G8U U31C	0.11
G9A G55C	0.24
G9A G24A	0.22
G9A G24C	0.2
G9A G73A	0.47
G8U U72C	0.15
G8U U72A	0.07
G8U U58C	0.1
G8U U58A	0.32
G9A U48C	0.36
G9C A47G	0.21
G8U U51A	0.08
G8U U51C	0.08
G9A U67A	0.11
G9A U67C	0.08
G9C A20G	0.06
